Assay results: PMC10921019

What was measured:
[1] = target: Parkin WT (pSer 65) (human) (UniProt O60260)
[2] = target: Parkin [F146A] (human) (UniProt O60260)
[3] = target: Parkin [W403A] (human) (UniProt O60260)
[4] = target: Human wild type Parkin 1-465 (human) (UniProt O60260)

p-Ubiquitin-His (pSer65-ubiquitin-6His) (natural protein)
Ub-K formation %, MALDI-TOF discharge assay of p-Parkin without or with p-Ub-His (100, 500, 2500 nM) (% Ub-K formation) [1]: 78 | residual Ub % after 10 min, MALDI-TOF auto-ubiquitylation assay of p-Parkin without or with p-Ub-His (100, 500, 2500 nM) (% residual Ub) [1]: 31.5 | EC50 of p-Ub-His for the activation of Parkin, MALDI-TOF auto-ubiquitylation assay (500 nM Parkin, 0.05-5 μM p-Ub-His, 30 min) [2]: 0.4 µM | EC50 of p-Ub-His for the activation of Parkin, MALDI-TOF discharge assay (500 nM Parkin, 0.05-5 μM p-Ub-His, 30 min) [2]: 0.6 µM | EC50 of p-Ub-His for the activation of Parkin, MALDI-TOF auto-ubiquitylation assay (500 nM Parkin, 0.05-5 μM p-Ub-His, 30 min) [3]: 0.2 µM | EC50 of p-Ub-His for the activation of Parkin, MALDI-TOF discharge assay (500 nM Parkin, 0.05-5 μM p-Ub-His, 30 min) [3]: 0.5 µM | EC50 of p-Ub-His for the activation of Parkin, MALDI-TOF auto-ubiquitylation assay (500 nM Parkin, 0.05-5 μM p-Ub-His, 30 min) [4]: 2 µM | EC50 of p-Ub-His for the activation of Parkin, MALDI-TOF discharge assay (500 nM Parkin, 0.05-5 μM p-Ub-His, 30 min) [4]: 1.4 µM
